Data: US20240141038A1 (SHANGHAI QILU PHARMACEUTICAL RESEARCH AND DEVELOPMENT CENTRE, published 2024)

Columns and labels:
[1] = molecular target: T1, Human NKp46 antigen for immunization, screening, and testing (Kactus, NKP-HM146) (human, UniProt O76036 22-255); test: SPR (Biacore 8K), antibody captured on anti-human Fc, NKp46 as analyte, 1:1 fit
T1 construct: Bought protein; also called human NKp46 antigen protein; human NKp46 protein
Procedure: Human NKp46 was diluted in two-fold to a serial concentration (400 nM-3.125 nM), then combined for 90 s at a flow rate of 50 μL/min, and dissociated for 500 s.
(§1) At the end of each round of experiments, 3 M MgCl₂ solution was used to rinse at a flow rate of 30 μL/min for 30 s, and the captured antibody was removed along with the antigen to complete the regeneration of the chip. The raw data were analyzed using Biacore Insight Evaluation Software (version 3.0.12.15655) software and (1:1) Langmuir model was fit to the data. Compared with the anti-NKp46 humanized antibody and the corresponding chimeric antibody, the affinity to the human NKp46 antigen protein is mostly maintained.

[2] = molecular target: T2, cynomolgus monkey NKp46 (full length, on cells) (cynomolgus monkey, UniProt Q95JB9 22-306); test: flow cytometry on cynomolgus monkey NKp46-CHOK1 cells
T2 construct: also called cynomolgus monkey NKp46-CHOK1; cynomolgus NKp46-CHOK1
Procedure: (§2) The stable human NKp46-CHOK1 and cynomolgus monkey NKp46-CHOK1 cell lines obtained in Example 2 were cultured, the cells were digested with 0.25% pancreatic enzyme EDTA for about 5 minutes, and the digestion was terminated with the complete medium. After centrifugation at 1,500 rpm for 5 minutes, the supernatant was discarded, the precipitated cells were resuspended with PBS containing 1% BSA and counted. The cell density was adjusted to 1E6/mL and seeded in a corning-3799 96-well culture plate at 100 μL/well. Aftering centrifuging at 1,500 rpm for 5 minutes, the supernatant was discarded and the precipitate was set aside at 4° C. The antibody solutions were prepared with PBS containing 1% BSA, wherein the antibody solution has an initial concentration was 100 nM, then diluted in 10-fold to obtain 7 gradients: 10⁻⁴ nM, 10⁻³ nM, 10⁻² nM, 10⁻¹ nM, […], and 10² nM. The prepared antibody solutions were used to resuspend the cells, 100 μL/well. The resuspended cell culture plates were incubated in a 4° C. freezer for 1 h. After centrifugation at 1500 rpm for 5 minutes, the supernatant was discarded. The precipitate was washed with 160 μL of PBS containing 1% BSA, the supernatant was discarded, and the cells were stored for later use.
(§3) The Secondary antibody (goat anti human IgG Fc PE) solution was prepared with PBS containing 1% BSA, and diluted 1:200. The cells were resuspended with the prepared secondary antibody solution, 100 μL/well, incubated in a 4° C. freezer for 0.5 h. After centrifugation at 1,500 rpm for 5 minutes, the supernatant was discarded, the precipitated cells were washed with 160 μL of PBS containing 1% BSA, the supernatant was discarded, the cells were resuspended with 100 μL of PBS containing 1% BSA, and filtered in 300-mesh gauze. The mean fluorescence intensity of antibody binding to cells was then analyzed on a flow cytometer. The FCS file was exported from the flow cytometer, the mean fluorescence intensity (hereinafter referred to as MFI) of PE channel was analyzed with Flowjo software, and the mean fluorescence intensity obtained was introduced into the Graphpad to analyze the half binding concentration (hereinafter referred to as EC₅₀) and the top mean fluorescence intensity (Top MFI) of the antibody and the cell.

[3] = molecular target: T3, human NKp46 (full length, on cells) (human, UniProt O76036 22-304); test: cell-based or functional assay
[4] = molecular target: T3, human NKp46 (full length, on cells); test: flow cytometry on human NKp46-CHOK1 cells
Procedure: as §2, §3

[5] = molecular target: T4, Cynomolgus monkey NKp46 for immunization, screening, and testing (Kactus, NKP-CM146) (cynomolgus monkey, UniProt Q95JB9 22-254); test: SPR (Biacore 8K), antibody captured on anti-human Fc, NKp46 as analyte, 1:1 fit
T4 construct: Bought protein; also called monkey NKp46 antigen protein; cynomolgus monkey NKp46 antigen
Procedure: Cynomolgus monkey NKp46 was diluted in two-fold to a serial concentration (400 nM-3.125 nM), combined for 90 s at a flow rate of 50 μL/min and dissociated for 500 s.
as §1

T3 sequence (O76036 22-304 Q82K): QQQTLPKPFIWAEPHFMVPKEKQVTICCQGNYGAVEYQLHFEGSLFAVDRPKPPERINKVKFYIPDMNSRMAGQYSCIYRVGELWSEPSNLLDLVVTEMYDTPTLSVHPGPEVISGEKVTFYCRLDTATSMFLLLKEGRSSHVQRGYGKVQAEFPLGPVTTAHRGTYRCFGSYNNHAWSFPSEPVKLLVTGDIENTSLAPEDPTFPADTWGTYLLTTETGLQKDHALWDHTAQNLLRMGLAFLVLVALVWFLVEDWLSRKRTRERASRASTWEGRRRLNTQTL
T4 sequence (Q95JB9 other isoform, or with tags, fused parts or gaps limits assumed): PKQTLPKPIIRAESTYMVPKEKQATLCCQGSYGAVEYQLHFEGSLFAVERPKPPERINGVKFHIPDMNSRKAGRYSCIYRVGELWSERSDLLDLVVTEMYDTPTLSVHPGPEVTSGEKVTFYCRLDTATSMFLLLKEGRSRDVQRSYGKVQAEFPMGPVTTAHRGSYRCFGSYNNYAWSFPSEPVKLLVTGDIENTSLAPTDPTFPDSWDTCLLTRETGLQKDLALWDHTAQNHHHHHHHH
T2 sequence (Q95JB9 22-306): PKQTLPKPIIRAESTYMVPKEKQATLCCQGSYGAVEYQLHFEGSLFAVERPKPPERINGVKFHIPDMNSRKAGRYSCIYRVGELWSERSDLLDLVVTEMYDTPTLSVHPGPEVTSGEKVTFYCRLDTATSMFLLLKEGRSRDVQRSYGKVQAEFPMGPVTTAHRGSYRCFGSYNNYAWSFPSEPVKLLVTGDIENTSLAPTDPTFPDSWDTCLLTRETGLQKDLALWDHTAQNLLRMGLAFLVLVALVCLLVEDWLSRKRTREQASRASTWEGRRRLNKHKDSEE
T1 sequence (O76036 other isoform, or with tags, fused parts or gaps limits assumed): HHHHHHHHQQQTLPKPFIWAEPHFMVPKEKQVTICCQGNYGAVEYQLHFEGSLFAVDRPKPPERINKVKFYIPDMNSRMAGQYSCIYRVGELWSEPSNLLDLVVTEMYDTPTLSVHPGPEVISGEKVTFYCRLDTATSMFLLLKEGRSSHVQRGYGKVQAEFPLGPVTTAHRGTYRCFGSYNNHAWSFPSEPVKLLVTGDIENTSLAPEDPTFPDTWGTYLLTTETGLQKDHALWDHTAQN

| Kd [1] | koff [1] | kon [1] | EC50 [2] | Top MFI [2] | EC50 of NK cell activation (CD107a-positive NK cells, plate-coated antibody) [3] | Top mean fluorescence intensity (Top MFI), NK cell activation (CD107a) [3] | EC50 [4] | Top MFI [4] | Kd [5] | koff [5] | kon [5] | Binder |
| --- | --- | --- | --- | --- | --- | --- | --- | --- | --- | --- | --- | --- |
| 5.89 nM | 0.00103 s⁻¹ | 175000 M⁻¹ s⁻¹ | 1.3 nM | 3340 | 0.38 nM | 34.1 | 0.162 nM | 5950 |  |  |  | H4-PA31 humanized antibody (antibody, human IgG1, V domains shown, not shown: constant region of human IgG1) VH: EVQLVESGGGLVQPGGSLRLSCAVSGRTFSRLPMGWFRQAPGKDREFVAAISWSSSTTYYADSVKGRFTISRDNSKNTAYLQMNSLRAEDTAVYYCAAVGGSLDYSATVVYTAARAYADWGQGTLVTVSS |
| 21.9 nM | 0.00204 s⁻¹ | 93000 M⁻¹ s⁻¹ | 1.53 nM | 3400 | 0.4 nM | 37.6 | 0.205 nM | 5760 |  |  |  | H4-PA45 humanized antibody (antibody, V domains shown, not shown: constant region of human IgG1) VH: EVQLVESGGGLVQPGGSLRLSCAASGRTFSRLPMAWFRQAPGKDREFVAAISWSGGSTYYADSMKGRFTISRDNSKNTAYLQMNSLRAEDTAVYYCAAVGDSAPYSATIVYTDARAYAYWGQGTLVTVSS |
| 6.05 nM | 0.000307 s⁻¹ | 50800 M⁻¹ s⁻¹ | 0.345 nM | 3260 | 0.85 nM | 21 | 0.389 nM | 6710 | 115 nM | 0.00589 s⁻¹ | 51300 M⁻¹ s⁻¹ | H1-PC11 humanized antibody (antibody, human IgG1, V domains shown, not shown: constant region of human IgG1) VH: EVQLVESGGGLVQPGGSLRLSCAASPYSANSFSMAWFRQAPGKGLEGVACIQAESGSTNVAPSVKGRFTISQDNSKNTLYLQMNSLRAEDTAVYYCAAFKRNVGGCELRPEHWRFWGQGTLVTVSS |
|  |  |  | 0.274 nM | 3620 | 1.84 nM | 19.3 | 0.305 nM | 7240 |  |  |  | H4-PC11 humanized antibody (antibody, human IgG1, V domains shown, not shown: constant region of human IgG1) VH: EVQLVESGGGLVQPGGSLRLSCAPSPYSANSFSMAWFRQAPGKGREGIACIQAESGSTNVAPSVKGRFTISQDNSKNTLYLQMNSLRAEDTAVYYCAAFKRNVGGCELRPEHWRFWGQGTLVTVSS |
| 2.05 nM | 0.000126 s⁻¹ | 61300 M⁻¹ s⁻¹ | 0.301 nM | 3540 | 0.87 nM | 18.8 | 0.363 nM | 6940 |  |  |  | H2-PC11 humanized antibody (antibody, human IgG1, V domains shown, not shown: constant region of human IgG1) VH: EVQLVESGGGLVQPGGSLRLSCAPSPYSANSFSMAWFRQAPGKGLEGIACIQAESGSTNVAPSVKGRFTISQDNSKNTLYLQMNSLRAEDTAVYYCAAFKRNVGGCELRPEHWRFWGQGTLVTVSS |
|  |  |  | 0.27 nM | 3660 | 0.95 nM | 23.6 | 0.302 nM | 7370 |  |  |  | H5-PC11 humanized antibody (antibody, human IgG1, V domains shown, not shown: constant region of human IgG1) VH: EVQLVESGGGLVQPGGSLRLSCAPSPYSANSFSMAWFRQAPGKEREGIACIQAESGSTNVAPSVKGRFTISQDNSKNTLYLQMNSLRAEDTAVYYCAAFKRNVGGCELRPEHWRFWGQGTLVTVSS |
| 1.14 nM | 7.75e-05 s⁻¹ | 67800 M⁻¹ s⁻¹ | 0.297 nM | 3280 | 1.21 nM | 19.6 | 0.328 nM | 6830 |  |  |  | H3-PC11 humanized antibody (antibody, human IgG1, V domains shown, not shown: constant region of human IgG1) VH: EVQLVESGGGLVQPGGSLRLSCAASPYSANSFSMAWFRQAPGKGREGVACIQAESGSTNVAPSVKGRFTISQDNSKNTLYLQMNSLRAEDTAVYYCAAFKRNVGGCELRPEHWRFWGQGTLVTVSS |
|  |  |  | 0.338 nM | 2540 | > 20 nM | 6.3 | 0.253 nM | 6000 |  |  |  | H1-PA27 humanized antibody (antibody, human IgG1, V domains shown, also called hPA27; not shown: constant region of human IgG1) VH: QVQLVESGGGVVQPGRSLRLSCAASGRTESWYRMGWVRQAPGKGLEWVARISGDTNIKYYAGSVKGRFTISRDNSKNTLYLQMSSLRAEDTAVYYCAADRTGATWDYWGQGTLVTVSS |
| 23.7 nM | 0.00266 s⁻¹ | 112000 M⁻¹ s⁻¹ | 0.074 nM | 3880 | 10.7 nM | 18.1 | 0.145 nM | 6650 |  |  |  | H4-PA27 humanized antibody (antibody, human IgG1, V domains shown, not shown: constant region of human IgG1) VH: DVQLVESGGGVVQPGRSLRLSCAASGRTESWYRMGWFRQAPGKGREVVARISGDTNIKYYAGSVKGRFTISRDNSKNTLYLQMSSLRAEDTAVYYCAADRTGATWDYWGQGTLVTVSS |
|  |  |  | 0.072 nM | 4060 | 7.39 nM | 14.4 | 0.153 nM | 6820 |  |  |  | H3-PA27 humanized antibody (antibody, human IgG1, V domains shown, not shown: constant region of human IgG1) VH: QVQLVESGGGVVQPGRSLRLSCAASGRTESWYRMGWFRQAPGKGREVVARISGDTNIKYYAGSVKGRFTISRDNSKNTLYLQMSSLRAEDTAVYYCAADRTGATWDYWGQGTLVTVSS |
|  |  |  | 1.52 nM | 3330 | 0.58 nM | 34 | 0.188 nM | 5720 |  |  |  | H3-PA45 humanized antibody (antibody, V domains shown, not shown: constant region of human IgG1) VH: EVQLVESGGGLVQPGGSLRLSCAASGRTFSRLPMAWFRQAPGKGREFVAAISWSGGSTYYADSMKGRFTISRDNSKNTAYLQMNSLRAEDTAVYYCAAVGDSAPYSATIVYTDARAYAYWGQGTLVTVSS |
|  |  |  | 1.16 nM | 3210 | 0.75 nM | 31.6 | 0.148 nM | 5980 |  |  |  | H3-PA31 humanized antibody (antibody, human IgG1, V domains shown, not shown: constant region of human IgG1) VH: EVQLVESGGGLVQPGGSLRLSCAVSGRTFSRLPMGWFRQAPGKGREFVAAISWSSSTTYYADSVKGRFTISRDNSKNTAYLQMNSLRAEDTAVYYCAAVGGSLDYSATVVYTAARAYADWGQGTLVTVSS |
|  |  |  | 11.1 nM | 3120 | 7.39 nM | 30.8 | 0.543 nM | 5090 |  |  |  | H1-PA45 humanized antibody (antibody, human IgG1, V domains shown, also called hPA45; not shown: constant region of human IgG1) VH: EVQLVESGGGLVQPGGSLRLSCAASGRTFSRLPMAWVRQAPGKGLEWVSAISWSGGSTYYADSMKGRFTISRDNSKNTLYLQMNSLRAEDTAVYYCAAVGDSAPYSATIVYTDARAYAYWGQGTLVTVSS |
